In patent publication US20020146774A1 (LUDWIG INSTITUTE FOR CANCER RESEARCH, published 2002):
Where no end group is shown, it is not given here. [ ]: non-standard residue; d: D form. pS = N[C@@H](COP(=O)(O)O)C(=O)O

Molecular target: T1, GST (UniProt P08515 1-218 = GST)
T1 construct: Control for GST-Smad4; also called GST protein
Assay: peptide-Sepharose pull-down, anti-GST immunoblot
Description: To investigate whether phosphorylated Ser465 and Ser467 of Smad2 are directly involved in heteromeric interaction with Smad4, phosphorylated and non-phosphorylated peptides corresponding to the C-terminus of Smad2 were made and tested for their ability to bind GST-Smad4 fusion proteins. Short C-terminal peptide of Smad2 SSMS (SNp; SEQ ID NO: 3) or its phosphorylated counterpart (SPp), as well as long C-terminal-peptide […] (LNp; SEQ ID NO: 4) or its phosphorylated counterpart (LPp), coupled to CNBr-Sepharose (peptide beads), were incubated with GST or GST-Smad4 fusion protein. For competition large excesses (200 μM) of non-phosphorylated short (SNp) or long (LNp) peptides or their phosphorylated counterpart (SPp and LPp, respectively) were used (block). Proteins bound to the beads, were resolved by SDS-PAGE, transferred to nitrocellulose membrane and immunoblotted with anti-GST antibodies. Migration positions of GST and GST-Smad4 are shown by double arrows. Molecular masses of standard proteins are indicated on the left side on gel in which protein-stained GST and GST-Smad4 are shown. […] The phosphorylated long peptide also bound GST-Smad4 more efficiently, than the non-phosphorylated counterpart, however, a considerable binding was observed also to the long non-phosphorylated peptide.

T1 sequence (P08515 whole entry): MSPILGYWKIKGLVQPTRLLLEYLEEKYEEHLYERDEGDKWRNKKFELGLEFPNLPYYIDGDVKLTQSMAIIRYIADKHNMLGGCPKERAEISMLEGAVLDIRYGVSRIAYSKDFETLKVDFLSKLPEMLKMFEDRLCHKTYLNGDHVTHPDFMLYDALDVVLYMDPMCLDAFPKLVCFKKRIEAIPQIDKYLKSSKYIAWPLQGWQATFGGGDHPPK

binding result: no binding
B1: short C-terminal peptide of Smad2 SSpMSp, doubly phosphorylated (peptide)
peptide: KKKS[pS]M[pS]
notes: The same phosphopeptide was the immunogen of the Smad2 phospho tail antibody; also called SPp
